The assay addresses T1, HemN-like radical SAM enzyme Swoo_2002 (Shewanella woodyi ATCC 51908, UniProt B1KQP7 1-448).
T1 construct: Swoo_2002, HemN-like radical SAM enzyme (counterpart of C10P) from a cryptic biosynthetic gene cluster of Shewanella woodyi ATCC 51908; The enzyme carries one [4Fe-4S] cluster per polypeptide after anaerobic reconstitution; also called C10P surrogate; c10P counterpart; source: E. coli Rosetta(DE3) (strain E. coli RoTB-SW), purified (Ni-NTA, desalination column)
T1 sequence (looked up): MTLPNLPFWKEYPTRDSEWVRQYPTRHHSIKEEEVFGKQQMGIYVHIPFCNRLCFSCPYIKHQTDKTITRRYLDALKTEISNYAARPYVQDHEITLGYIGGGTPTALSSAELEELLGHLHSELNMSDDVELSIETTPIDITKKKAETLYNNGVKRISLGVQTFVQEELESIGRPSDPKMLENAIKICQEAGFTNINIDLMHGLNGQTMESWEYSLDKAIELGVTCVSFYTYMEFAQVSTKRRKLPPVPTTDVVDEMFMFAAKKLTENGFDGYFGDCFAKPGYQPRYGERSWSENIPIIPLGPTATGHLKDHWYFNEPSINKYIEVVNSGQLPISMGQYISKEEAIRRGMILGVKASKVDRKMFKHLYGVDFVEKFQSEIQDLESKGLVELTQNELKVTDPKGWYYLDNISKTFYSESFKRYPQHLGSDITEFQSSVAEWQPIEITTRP
The assay can be described thus: ITC; 600 μM C10Q titrated into 200 μL of 60 μM Swoo_2002; PBS buffer pH 7.4 (after desalination, no glycerol, less than 5‰ DMSO); Malvern MicroCal ITC200. The conditions noted are these: both partners purified.

By Kd is commonly meant a measure of binding affinity in units of concentration. Low readings indicate a tighter complex, high ones a looser complex.

B1: methyltransferase C10Q (enzyme, Streptomyces zelensis NRRL 11183, UniProt A0A1W6EUU7 1-234, looked up)
chain: MTTEAPLLDLAERVPLDRPHGDIEAVRAYDLGMRRSALMAYKRPTERILAAYREGMTDFVDIGFNTGLLSLHVAGRLPDVAVSGVEEFPHLVDVAEDNLTLGVWANMAGDVEFEQSKLSRLPFPDDSADIVYSFSSLHRWRRPVETLREAARVCKPDGTVLIEDVNRLAEEGHITFILQFVKEGGDQFMRSLKAAYSLDQARDLLREAGLDDWHVVEEDLGLVISNRPVTPVSM
notes: SAM-dependent methyltransferase C10Q of the CC-1065 biosynthetic gene cluster, Streptomyces zelensis NRRL 11183; cloned from total DNA by 'similar procedures' as the intact c10P gene; source: E. coli Rosetta(DE3) (strain E. coli Ro37-Q), purified (Ni-NTA, desalination column)
On to B1, for which the Kd was determined as 8 µM.

The record behind these values is paper PMC6050322, “A radical S-adenosyl-L-methionine enzyme and a methyltransferase catalyze cyclopropane formation in natural product biosynthesis” (Nature Communications, 2018).
